From article PMC8352866 come the findings set out here.

As usually defined, the stoichiometry N is the number of molecules, sites or subunits per partner or assembly.

The target in experiment [1] is Synechocystis sp. PCC 6803 SbtA (Synechocystis sp. PCC 6803). In words: cryo-EM structure; SbtA-SbtB complex purified in the presence of AMP; 3.15 Å resolution.
For experiment [2] the target is unchanged. Description: cryo-EM structure; free SbtA, purified; 3.50 Å resolution.
For experiment [3], the target named is PII-like signaling protein SbtB. In words: cryo-EM structure; SbtA-SbtB complex purified in the presence of AMP; 3.15 Å resolution.

Consider “Synechocystis sp. PCC 6803 SbtA (natural protein)”, for which the stoichiometry N in experiment [1] and in experiment [2] was 3 each time.
As for “PII-like signaling protein SbtB (natural protein)”, in experiment [3], the stoichiometry N came out at 3.
